The source of these data is patent publication US20240124615A1 (HEFEI TG IMMUNOPHARMA, published 2024).

This assay has as its target T1, Human B7H6 (ACRO biosystems, cat. No. B76-H52H8) (human, UniProt Q68D85 25-262).
T1 construct: Bought antigen; also called B7H6 antigen; human B7H6 protein
T1 sequence (looked up): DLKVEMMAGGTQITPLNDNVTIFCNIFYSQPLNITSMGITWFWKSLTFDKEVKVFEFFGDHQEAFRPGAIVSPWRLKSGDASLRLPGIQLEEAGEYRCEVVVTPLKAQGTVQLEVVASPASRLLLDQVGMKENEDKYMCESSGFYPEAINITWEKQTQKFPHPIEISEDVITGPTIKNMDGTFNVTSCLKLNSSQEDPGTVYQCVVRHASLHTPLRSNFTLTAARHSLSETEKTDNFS
Description: ELISA, B7H6 coated, HRP anti-human IgG detection. The procedure:
Human B7H6 (ACRO biosystems, cat. No. B76-H52H8) and human CD3 antigen (ACRO biosystems, cat. No. CDD-H52W1) were diluted to 2 μg/mL with coating buffer (35 mM NaHCO₃, 15 mM Na₂CO₃, pH 9.6), respectively. 100 μL of the diluted solution was added to each well of an ELISA plate at 4° C. overnight, and then washes with PBST (0.05% Tween 20-PBS, pH 7.2) 3 times. 300 μL of blocking buffer (1% BSA, 0.05% Tween20-PBS, pH 7.2) was added to the plate and allowed to stand at room temperature for 2 h, followed by washing with PBST three times. The corresponding bispecific antibody was added to each well and incubated at room temperature for 1 h, followed by washing with PBST three times. 100 μL of HRP-rabbit anti human IgG secondary antibody (Boster, cat. No. BA1070) diluted in blocking buffer was added to each well and incubated for 1 h at room temperature, followed by washing with PBST three times. TMB was added into each well. The plate was kept away from light at room temperature for 2-5 min, the reaction was stopped by adding 2 M sulfuric acid in each well, and finally OD450 values were read with microplate reader.
(In an ELISA, binding on a coated surface is turned into a signal by an enzyme label.)

B1: CD3xB7H6-17 bispecific antibody (bispecific antibody, human IgG1, L234A L235A)
chain 1: not shown
chain 2: DIVLTQSPVSLAVPLGQRATISCKASQSVDYDGDSYMNWYQQKPGQPPKLLIYAASTLHSGIPVRFSGSGSGTDFTLNIHPVEEEDAASYYCQQSKEDPRTFGGGTKLEIKGGGGSGGGGSGGGGSEVLLQQSGPEVVKPGASVKITCKASGYTFTDYNMDWVKQSHGKSLEWIGDINPNNAGTLYNQKFRGRVTLIVDKSSSTAYMELRSLTSDDTAVYYCARSEVFYGNYADYWGQGTTLTVSSEPKSCDKTHTCPPCPAPEAAGGPSVFLFPPKPKDTLMISRTPEVTCVVVDVSHEDPEVKFNWYVDGVEVHNAKTKPREEQYNSTYRVVSVLTVLHQDWLNGKEYKCKVSNKALPAPIEKTISKAKGQPREPQVCTLPPSRDELTKNQVSLSCAVKGFYPSDIAVEWESNGQPENNYKTTPPVLDSDGSFFLVSKLTVDKSRWQQGNVFSCSVMHEALHNHYTQKSLSLSPGK
notes: Heterodimer of two scFv-Fc units, knob-into-hole human IgG1 Fc; name formed by analogy with CD3xB7H6-14
In the case of B1, the binding result is “binds”.

B2: CD3xB7H6-18 bispecific antibody (bispecific antibody, human IgG1, L234A L235A)
chain 1: not shown
chain 2: DIVLTQSPVSLAVPLGQRATISCKASQSVDYDADSYMNWYQQKPGQPPKLLIYAASTLHSGIPVRFSGSGSGTDFTLNIHPVEEEDAASYYCQQSKEDPRTFGGGTKLEIKGGGGSGGGGSGGGGSEVLLQQSGPEVVKPGASVKITCKASGYTFTDYNMDWVKQSHGKSLEWIGDINPNNGGTLYNQKFRGRVTLIVDKSSSTAYMELRSLTSDDTAVYYCARSEVFYGNYADYWGQGTTLTVSSEPKSCDKTHTCPPCPAPEAAGGPSVFLFPPKPKDTLMISRTPEVTCVVVDVSHEDPEVKFNWYVDGVEVHNAKTKPREEQYNSTYRVVSVLTVLHQDWLNGKEYKCKVSNKALPAPIEKTISKAKGQPREPQVCTLPPSRDELTKNQVSLSCAVKGFYPSDIAVEWESNGQPENNYKTTPPVLDSDGSFFLVSKLTVDKSRWQQGNVFSCSVMHEALHNHYTQKSLSLSPGK
notes: as for B1
Regarding B2, the binding result is given as “binds”.

B3: CD3xB7H6-11 bispecific antibody (bispecific antibody, human IgG1, L234A L235A)
chain 1: not shown
chain 2: DIVLTQTPLSLSVTPGQPASISCKASQSVDYDGDSYMNWYLQKPGQPPQLLIYAASTLHSGVPDRFSGSGSGTDFTLKISRVEAEDVGVYYCQQSKEDPRTFGQGTKLEIKGGGGSGGGGSGGGGSEVQLVQSGAEVKKPGASVKVSCKASGYTFTDYNMDWVRQAPGQGLEWIGDINPNNGGTLYNQKFRGRVTLTVDKSISTAYMELSRLRSDDTAVYYCARSEVFYGNYADYWGQGTTVTVSSEPKSCDKTHTCPPCPAPEAAGGPSVFLFPPKPKDTLMISRTPEVTCVVVDVSHEDPEVKFNWYVDGVEVHNAKTKPREEQYNSTYRVVSVLTVLHQDWLNGKEYKCKVSNKALPAPIEKTISKAKGQPREPQVCTLPPSRDELTKNQVSLSCAVKGFYPSDIAVEWESNGQPENNYKTTPPVLDSDGSFFLVSKLTVDKSRWQQGNVFSCSVMHEALHNHYTQKSLSLSPGK
notes: as for B1
As to B3, the binding result is “binds”.

B4: CD3xB7H6-13 bispecific antibody (bispecific antibody, human IgG1, L234A L235A)
chain 1: not shown
chain 2: DIVLTQTPLSLSVTPGQPASISCKASQSVDYDGDSYMNWYLQKPGQPPQLLIYAASTLHSGIPDRFSGSGSGTDFTLKISRVEAEDVGVYYCQQSKEDPRTFGQGTKLEIKGGGGSGGGGSGGGGSEVQLVQSGAEVKKPGASVKVSCKASGYTFTDYNMDWVRQAPGQGLEWMGDINPNNGGTLYNQKFRGRVTMTVDTSISTAYMELSRLRSDDTAVYYCARSEVFYGNYADYWGQGTTVTVSSEPKSCDKTHTCPPCPAPEAAGGPSVFLFPPKPKDTLMISRTPEVTCVVVDVSHEDPEVKFNWYVDGVEVHNAKTKPREEQYNSTYRVVSVLTVLHQDWLNGKEYKCKVSNKALPAPIEKTISKAKGQPREPQVCTLPPSRDELTKNQVSLSCAVKGFYPSDIAVEWESNGQPENNYKTTPPVLDSDGSFFLVSKLTVDKSRWQQGNVFSCSVMHEALHNHYTQKSLSLSPGK
notes: as for B1
As for B4, the binding result is recorded as “binds”.

B5: CD3xB7H6-15 bispecific antibody (bispecific antibody, human IgG1, L234A L235A)
chain 1: not shown
chain 2: DIVLTQTPLSLSVTPGQPASISCKASQSVDYDGDSYMNWYLQKPGQPPQLLIYAASTLHSGIPDRFSGSGSGTDFTLKISRVEAEDVGVYYCQQSKEDPRTFGQGTKLEIKGGGGSGGGGSGGGGSEVQLVQSGAEVKKPGASVKVSCKASGYTFTDYNMDWVRQAPGQGLEWIGDINPNNGGTLYNQKFRGRVTLTVDKSISTAYMELSRLRSDDTAVYYCARSEVFYGNYADYWGQGTTVTVSSEPKSCDKTHTCPPCPAPEAAGGPSVFLFPPKPKDTLMISRTPEVTCVVVDVSHEDPEVKFNWYVDGVEVHNAKTKPREEQYNSTYRVVSVLTVLHQDWLNGKEYKCKVSNKALPAPIEKTISKAKGQPREPQVCTLPPSRDELTKNQVSLSCAVKGFYPSDIAVEWESNGQPENNYKTTPPVLDSDGSFFLVSKLTVDKSRWQQGNVFSCSVMHEALHNHYTQKSLSLSPGK
notes: as for B1
Consider B5, for which the binding result is on record as “binds”.

B6: CD3xB7H6-12 bispecific antibody (bispecific antibody, human IgG1, L234A L235A)
chain 1: not shown
chain 2: DIVLTQTPLSLSVTPGQPASISCKASQSVDYDGDSYMNWYLQKPGQPPQLLIYAASTLHSGVPDRFSGSGSGTDFTLKISRVEAEDVGVYYCQQSKEDPRTFGQGTKLEIKGGGGSGGGGSGGGGSEVQLVQSGAEVKKPGASVKVSCKASGYTFTDYNMDWVRQAPGKGLEWIGDINPNNGGTLYNQKFRGRVTLTVDKSISTAYMELSRLRSDDTAVYYCARSEVFYGNYADYWGQGTTVTVSSEPKSCDKTHTCPPCPAPEAAGGPSVFLFPPKPKDTLMISRTPEVTCVVVDVSHEDPEVKFNWYVDGVEVHNAKTKPREEQYNSTYRVVSVLTVLHQDWLNGKEYKCKVSNKALPAPIEKTISKAKGQPREPQVCTLPPSRDELTKNQVSLSCAVKGFYPSDIAVEWESNGQPENNYKTTPPVLDSDGSFFLVSKLTVDKSRWQQGNVFSCSVMHEALHNHYTQKSLSLSPGK
notes: as for B1
Consider B6, for which the binding result is “binds”.

B7: CD3xB7H6-14 bispecific antibody (bispecific antibody, human IgG1, L234A L235A)
chain 1: not shown
chain 2: DIVLTQTPLSLSVTPGQPASISCKASQSVDYDGDSYMNWYLQKPGQPPQLLIYAASTLHSGIPDRFSGSGSGTDFTLKISRVEAEDVGVYYCQQSKEDPRTFGQGTKLEIKGGGGSGGGGSGGGGSEVQLVQSGAEVKKPGASVKVSCKASGYTFTDYNMDWVRQAPGQGLEWIGDINPNNGGTLYNQKFRGRVTLTVDTSISTAYMELSRLRSDDTAVYYCARSEVFYGNYADYWGQGTTVTVSSEPKSCDKTHTCPPCPAPEAAGGPSVFLFPPKPKDTLMISRTPEVTCVVVDVSHEDPEVKFNWYVDGVEVHNAKTKPREEQYNSTYRVVSVLTVLHQDWLNGKEYKCKVSNKALPAPIEKTISKAKGQPREPQVCTLPPSRDELTKNQVSLSCAVKGFYPSDIAVEWESNGQPENNYKTTPPVLDSDGSFFLVSKLTVDKSRWQQGNVFSCSVMHEALHNHYTQKSLSLSPGK
notes: Heterodimer of two scFv-Fc units, knob-into-hole human IgG1 Fc; lead molecule; also called CD3kB7H6-14
Turning to B7, the binding result is on record as “binds”.

B8: CD3xB7H6-16 bispecific antibody (bispecific antibody, human IgG1, L234A L235A)
chain 1: not shown
chain 2: DIVLTQTPLSLSVTPGQPASISCKASQSVDYDGDSYMNWYLQKPGQPPQLLIYAASTLHSGIPDRFSGSGSGTDFTLKISRVEAEDVGVYYCQQSKEDPRTFGQGTKLEIKGGGGSGGGGSGGGGSEVQLVQSGAEVKKPGASVKVSCKASGYTFTDYNMDWVRQAPGKGLEWIGDINPNNGGTLYNQKFRGRVTLTVDKSISTAYMELSRLRSDDTAVYYCARSEVFYGNYADYWGQGTTVTVSSEPKSCDKTHTCPPCPAPEAAGGPSVFLFPPKPKDTLMISRTPEVTCVVVDVSHEDPEVKFNWYVDGVEVHNAKTKPREEQYNSTYRVVSVLTVLHQDWLNGKEYKCKVSNKALPAPIEKTISKAKGQPREPQVCTLPPSRDELTKNQVSLSCAVKGFYPSDIAVEWESNGQPENNYKTTPPVLDSDGSFFLVSKLTVDKSRWQQGNVFSCSVMHEALHNHYTQKSLSLSPGK
notes: as for B1
For the molecule B8, the binding result is on record as “binds”.
